One block for each molecule: values may come before it.
Legend:
[1] = molecular target: ALK (Homo sapiens) (UniProt Q9UM73); settings: cited from earlier work
[2] = molecular target: EphA4 (Homo sapiens) (UniProt P54764); settings: cited from earlier work
[3] = molecular target: T1, endogenous wild-type ALK in H1299 human lung cancer cells (human (endogenous in H1299), UniProt Q9UM73 19-1620); assay: ELISA; ALK captured from H1299 lysate on plate-bound ALK antibody (3 µg/ml); recombinant RNase1 at different concentrations in lysis buffer, overnight at 4 °C; streptavidin-HRP, TMB, OD 450 nm; Kd by GraphPad Prism; settings: one partner purified
T1 construct: ALK receptor tyrosine kinase, wild type, endogenous in H1299 human lung cancer cells; also called WT ALK; source: endogenous, H1299 lysate; endogenous, in H1299 cells
T1 sequence (Q9UM73 19-1620): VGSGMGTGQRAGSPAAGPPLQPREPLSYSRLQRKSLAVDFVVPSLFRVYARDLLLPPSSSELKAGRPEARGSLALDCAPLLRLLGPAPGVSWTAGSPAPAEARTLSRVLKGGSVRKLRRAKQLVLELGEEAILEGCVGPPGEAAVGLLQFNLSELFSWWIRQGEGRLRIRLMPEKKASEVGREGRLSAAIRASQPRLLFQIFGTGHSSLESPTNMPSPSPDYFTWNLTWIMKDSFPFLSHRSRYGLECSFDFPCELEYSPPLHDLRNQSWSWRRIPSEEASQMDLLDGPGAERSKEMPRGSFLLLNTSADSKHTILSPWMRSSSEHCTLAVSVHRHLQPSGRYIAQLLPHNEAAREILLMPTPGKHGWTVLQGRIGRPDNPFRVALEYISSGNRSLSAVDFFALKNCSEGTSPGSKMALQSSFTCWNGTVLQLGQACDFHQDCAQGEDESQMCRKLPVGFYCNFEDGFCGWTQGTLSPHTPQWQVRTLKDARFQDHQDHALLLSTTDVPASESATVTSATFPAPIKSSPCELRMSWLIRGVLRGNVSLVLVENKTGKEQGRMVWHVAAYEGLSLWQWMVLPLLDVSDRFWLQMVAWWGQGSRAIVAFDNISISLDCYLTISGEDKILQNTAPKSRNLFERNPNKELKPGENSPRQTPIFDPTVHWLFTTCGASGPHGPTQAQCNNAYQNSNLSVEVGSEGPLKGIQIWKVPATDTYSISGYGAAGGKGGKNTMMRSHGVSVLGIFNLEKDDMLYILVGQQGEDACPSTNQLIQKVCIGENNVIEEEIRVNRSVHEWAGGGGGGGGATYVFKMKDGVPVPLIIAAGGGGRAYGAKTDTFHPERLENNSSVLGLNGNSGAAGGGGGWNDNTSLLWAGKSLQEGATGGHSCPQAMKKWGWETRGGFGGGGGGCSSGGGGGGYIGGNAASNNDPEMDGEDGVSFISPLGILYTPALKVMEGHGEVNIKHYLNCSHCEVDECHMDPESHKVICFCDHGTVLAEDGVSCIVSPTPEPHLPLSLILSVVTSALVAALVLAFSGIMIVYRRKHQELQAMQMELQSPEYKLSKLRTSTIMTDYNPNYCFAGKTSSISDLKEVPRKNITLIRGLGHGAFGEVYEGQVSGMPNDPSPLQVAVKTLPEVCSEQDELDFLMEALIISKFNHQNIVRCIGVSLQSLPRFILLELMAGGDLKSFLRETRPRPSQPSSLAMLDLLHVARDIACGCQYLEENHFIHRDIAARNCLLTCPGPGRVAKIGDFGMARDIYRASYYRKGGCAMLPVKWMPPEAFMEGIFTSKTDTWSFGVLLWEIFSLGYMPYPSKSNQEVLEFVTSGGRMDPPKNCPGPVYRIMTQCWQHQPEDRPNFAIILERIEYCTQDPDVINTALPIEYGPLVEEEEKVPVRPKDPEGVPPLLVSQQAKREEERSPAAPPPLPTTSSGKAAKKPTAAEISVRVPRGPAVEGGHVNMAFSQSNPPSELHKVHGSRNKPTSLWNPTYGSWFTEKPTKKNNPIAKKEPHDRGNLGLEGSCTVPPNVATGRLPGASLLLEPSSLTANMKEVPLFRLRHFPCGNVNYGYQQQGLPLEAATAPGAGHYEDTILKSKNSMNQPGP

Sequence of ALK (Homo sapiens) (Q9UM73 19-1038): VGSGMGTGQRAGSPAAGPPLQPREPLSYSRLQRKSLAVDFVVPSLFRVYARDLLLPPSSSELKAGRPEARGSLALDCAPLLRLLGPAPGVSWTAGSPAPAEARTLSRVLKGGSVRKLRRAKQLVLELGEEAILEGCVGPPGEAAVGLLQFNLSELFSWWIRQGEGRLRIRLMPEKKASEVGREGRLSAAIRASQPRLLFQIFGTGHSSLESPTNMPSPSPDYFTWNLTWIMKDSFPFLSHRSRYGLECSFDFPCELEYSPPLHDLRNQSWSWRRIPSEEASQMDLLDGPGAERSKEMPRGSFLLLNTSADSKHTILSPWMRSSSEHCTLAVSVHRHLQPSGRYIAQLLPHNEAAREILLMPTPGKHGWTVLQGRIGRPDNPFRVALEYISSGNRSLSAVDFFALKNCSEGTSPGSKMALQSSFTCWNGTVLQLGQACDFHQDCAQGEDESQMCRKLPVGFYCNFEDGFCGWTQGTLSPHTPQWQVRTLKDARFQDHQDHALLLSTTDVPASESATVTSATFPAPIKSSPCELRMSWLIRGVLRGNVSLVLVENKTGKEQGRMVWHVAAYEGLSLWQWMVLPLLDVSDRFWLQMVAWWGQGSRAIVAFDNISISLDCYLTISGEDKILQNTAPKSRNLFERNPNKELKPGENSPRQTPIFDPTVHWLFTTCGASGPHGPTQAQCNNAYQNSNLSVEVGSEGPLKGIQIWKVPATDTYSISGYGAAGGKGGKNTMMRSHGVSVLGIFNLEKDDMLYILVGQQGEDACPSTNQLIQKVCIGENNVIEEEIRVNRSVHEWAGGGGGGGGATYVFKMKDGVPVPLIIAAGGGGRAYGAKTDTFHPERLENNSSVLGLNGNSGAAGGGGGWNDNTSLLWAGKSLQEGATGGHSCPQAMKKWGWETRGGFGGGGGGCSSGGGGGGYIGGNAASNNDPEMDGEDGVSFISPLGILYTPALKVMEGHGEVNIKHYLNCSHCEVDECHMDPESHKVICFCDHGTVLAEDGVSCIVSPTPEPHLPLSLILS
Sequence of EphA4 (Homo sapiens) (P54764 20-547): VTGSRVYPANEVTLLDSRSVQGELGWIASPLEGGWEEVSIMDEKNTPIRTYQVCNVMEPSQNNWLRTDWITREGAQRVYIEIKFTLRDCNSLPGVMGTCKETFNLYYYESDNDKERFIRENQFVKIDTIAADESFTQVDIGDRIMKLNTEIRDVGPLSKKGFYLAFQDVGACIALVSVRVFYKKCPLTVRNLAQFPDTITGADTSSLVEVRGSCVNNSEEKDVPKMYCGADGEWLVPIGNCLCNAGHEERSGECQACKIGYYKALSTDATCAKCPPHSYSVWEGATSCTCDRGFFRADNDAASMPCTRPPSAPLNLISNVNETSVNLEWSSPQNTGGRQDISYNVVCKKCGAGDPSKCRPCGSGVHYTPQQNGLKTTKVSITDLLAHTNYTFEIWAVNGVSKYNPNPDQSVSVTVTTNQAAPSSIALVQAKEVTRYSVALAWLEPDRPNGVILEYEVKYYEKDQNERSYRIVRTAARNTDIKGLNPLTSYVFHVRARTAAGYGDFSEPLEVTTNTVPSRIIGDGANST

Molecule: ALKAL2 (from UniProt Q6UX46)
Kd [1]: 40 nM

Molecule: RNase1 (from UniProt P07998)
Kd [2]: 92.4 nM

Kd [3]: 43 nM
B1: recombinantly purified 6x N-terminal His-tagged RNase1 (ligand, human, UniProt P07998 29-156, looked up)
chain: KESRAKKFQRQHMDSDSSPSSSSTYCNQMMRRRNMTQGRCKPVNTFVHEPLVDVQNVCFQEKVTCKNGQGNCYKSNSSMHITDCRLTNGSRYPNCAYRTSPKERHIIVACEGSPYVPVHFDASVEDST
notes: human secretory ribonuclease 1 (RNase1); cDNA cloned into the prokaryotic vector PSJ3 with N-terminal 6His tag; a bacterial construct is likely to lack the signal peptide (surmise); also called R1; human secretory ribonuclease 1; source: E. coli BL21, purified (HisTrap column); not shown: His6, N-terminal, kept

— publication PMC12006399, “RNase1-driven ALK-activation is an oncogenic driver and therapeutic target in non-small cell lung cancer” (Signal Transduction and Targeted Therapy, 2025)
